# In the DeepSol protein solubility set:
# Test: soluble on expression in E. coli; label from the status in PepcDB or PDB records
row,Sequence,soluble on expression in E. coli
1,MSRCPEDSRTGNGRNGAPDPGELSAMVRKLEIRSRRLVNELFSGEYHSSFKGRGIEFSQVREYQYGDDVRTIDWNTSAHKNDLYVKIFTEERERILMLVLDGSGSMLFGSGRLKKELAAEVSAILAFSAVQNNDMVGLLVFSDTVETYIPPRKGRAHALVILNEIFSMRQCGRKTDIDAALSFLRRTQKRKSIIFLLTDLLGSEYERGMKLLNARHEFVLIHIGDPLDHELPHSGLLDLVDPETGERLTIDAGSRAFLARYAKEQRAKREAVQRQLSRMKVDAVFLDTGKSIIGGLNAFFRHRERKV,not soluble
2,MSRESTVREWRTRVPRYRLLGGRCSDCGRSFYPPAKACPYCGSRNVAETELPRVGRLEAYTVLYSVESGARDRSPVVIGLVDLGVAKVVSEIVDVSDPESLERGVQVEAVFRRIYEDGDEGVIVYGVKFRPKA,not soluble
3,MSRGPSSAVLPSALGSRKLGPRSLSCLSDLDGGVALEPRACRPPGSPGRAPPPTPAPSGCDPRLRPIILRRARSLPSSPERRQKAAGAPGAACRPGCSQKLRVRFADALGLELAQVKVFNAGDDPSVPLHVLSRLAINSDLCCSSQDLEFTLHCLVPDFPPPVEAADFGERLQRQLVCLERVTCSDLGISGTVRVCNVAFEKQVAVRYTFSGWRSTHEAVARWRGPAGPEGTEDVFTFGFPVPPFLLELGSRVHFAVRYQVAGAEYWDNNDHRDYSITCRNHALHMPRGECEESWIHFI,soluble
4,MSRKMTGIVKTFDCKSGKGLITPSDGRKDVQVHISACRQHETEALIPGIRVEFCRINGLRGPTAANVYLS,not soluble
5,MSRLGYVMTKASAKNFKVYINGSARGYRNIIINGAKSWNPSPYLNTVTMGNDVKPNFTVSSSNTNKGSVLAVCNTTYYKSNKLIVKNEITLYKGFRSLSNNHKIETVAHEFGHGFGLGHVKTRNAIMLDKGFINKTKPQKDDFNGIKALYKLEHHHHHH,soluble
6,MSRNMFKLAHISDVHLGPLPRLSIQELFSKRITGFVNWHRNRRKHLFASTLDLLLDDIRTHRADHLAVTGDLVNLASGIEIRAAAAWLRALGDPADTSVVPGNHDAYVPGAYEKSMRAWYDYVRGDLAPPQWQEDRRIFPYLRVRDKVAIVGCSTAVATPPFAASGFFSARQARDTVNMLRAAGEAGLFRVVMIHHPPIRGATAFHKRMIGIRRFAAVISTGGAELVLHGHTHLNTLHWLRGQVQPVPVVGIASASQGPGSIKPPAAYNLFSIDGAPGAWELEHHHHHH,soluble
7,MSRPQFTSLRLSLLALAVSATLPTFAFATETMTVTATGNARSSFEAPMMVSVIDTSAPENQTATSATDLLRHVPGITLDGTGRTNGQDVNMRGYDHRGVLVLVDGVRQGTDTGHLNGTFLDPALIKRVEIVRGPSALLYGSGALGGVISYDTVDAKDLLQEGQSSGFRVFGTGGTGDHSLGLGASAFGRTENLDGIVAWSSRDRGDLRQSNGETAPNDESINNMLAKGTWQIDSAQSLSGLVRYYNNDAREPKNPQTVGASESSNPMVDRSTIQRDAQLSYKLAPQGNDWLNADAKIYWSEVRINAQNTGSSGEYREQITKGARLENRSTLFADSFASHLLTYGGEYYRQEQHPGGATTGFPQAKIDFSSGWLQDEITLRDLPITLLGGTRYDSYRGSSDGYKDVDADKWSSRAGMTINPTNWLMLFGSYAQAFRAPTMGEMYNDSKHFSIGRFYTNYWVPNPNLRPETNETQEYGFGLRFDDLMLSNDALEFKASYFDTKAKDYISTTVDFAAATTMSYNVPNAKIWGWDVMTKYTTDLFSLDVAYNRTRGKDTDTGEYISSINPDTVTSTLNIPIAHSGFSVGWVGTFADRSTHISSSYSKQPGYGVNDFYVSYQGQQALKGMTTTLVLGNAFDKEYWSPQGIPQDGRNGKIFVSYQW,not soluble
8,MSRRAPMFKPLPITLQRGALRLEPLVEADIPELVSLAEANREALQYMDGPTRPDWYRQSLAEQREGRALPLAVRLGVQLVGTTRFAEFLPALPACEIGWTWLDQAQHGSGLNRMIKYLMLKHAFDNLRMVRVQLSTAASNLRAQGAIDKLGAQREGVLRNHRRLAGGRLDDTFVYSITDHEWPQVKAALEASFTG,soluble
9,MSRRHSVVDAYSTVEGKIRDTMRELSALWDEVDMSEAMRLKRVDNAFTHITLLCDDMLSGEKEMIHNLKVSIREDMQNVKKMRLELEMEDFQRPAEIKDGSIALMRHLQSEVKSLETEFQTRHEDQRVLIEKICNLKKRLESDFEFEYEIHAKLNFDTDLPPCMSPATSEMISFITPTRRQAVGPKTSSPKDTQPSTSSSSRTTTPMSKRAMTPSSIASSTPSSAKKVLTRRNQFL,not soluble
10,MSRRSQWKQVANGMLGDVSKARSVEERENVPEKACGFCKNFSENAYASDGRGYCKKLKVGSDIKVNPPVYVMEGQASLTVLFNSDGAGCEYFNRQDLIDTDGNEVNDPSYRRVQRQMEKAIK,not soluble
11,MSRRVATITLNPAYDLVGFCPEIERGEVNLVKTTGLHAAGKGINVAKVLKDLGIDVTVGGFLGKDNQDGFQQLFSELGIANRFQVVQGRTRINVKLTEKDGEVTDFNFSGFDVTPADWERFVNDSLSWLGQFDMVCVSGSLPAGVSPEAFTDWMTRLRSQCPCIIFDSSREALVAGLKAAPWLVKPNRRELEIWAGRKLPEMKDVIDAAHALREQGIAHVVISLGAEGALWVNASGEWIAKPPAVDVVSTVGAGDSMVGGLIYGLLMRESSEHTLRLATAVAALAVSQSNVGITDRPQLAAMMARVDLQPFN,not soluble
12,MSRRYDTIKHLGEGQFANVYLAQDLESGECVAIKKIKLGSREEAKDGINRTAIREIKLLKEIHHDNIIGLRDVIGHRTSIQLVFDFMDTDLEHVIKDKEIILMPAHIKNITMQMLLGLEFLHVHWILHRDLKPNNLLMNKMGRVKLTDFGLARFFGSPNRNYTHQVVTRWYRAPELLFGARSYGVGIDIWSVGCIIAELLLRNPIFPGESDIDQLVKIFNILGCPTPETWPNMTEMNSYVIIKPQTEYMALNYYFSAAPQDLLDLMAGMWTFDPIKRLTCTQSLQMEYFRTQPFCCLDEELPLPKKQQPQKRSRRLDDDGTRPVRRLNFD,not soluble
13,MSRSKKTRRISDIMPARKADKKPALPISNSKKRKPTRYELDVQAREEKKKRKHKGLPTGSRNVITEQKTASAKVKKDPRVGSRKKVPLMVEFVNKPEKGQMIKPVPLEPSNHATKATVSPEVELTQLENNECLNQLLDQLEAGKVLSTQDQQFVDECLDRVHELIIELGIEDDEENNEDLLLRQFETIDINKFK,not soluble
14,MSRSLLTNETSELDLLDQRPFEQTDFDILKSYEAVVDGLAMLIGSHCEIVLHSLQDLKCSAIRIANGEHTGRKIGSPITDLALRMLHDMTGADSSVSKCYFTRAKSGVLMKSLTIAIRNREQRVIGLLCINMNLDVPFSQIMNTFIPPETPEVGSAVNFASSVEDLVTQTLEFTIEEVNADRNVSNNAKNRQIVLNLYEKGIFDIKDAINQVADRLNISKHTVYLYIRQFKSGDFQGQDK,not soluble
15,MSRTLTPLLDRVCEPQDLRAFPESDLARLADELRAETIDVVSVTGGHLGAGLGVIELTVALHYVFNTPEDRIIWDVGHQAYPHKILTGRREKIRTLRQEGGLSGFTKRSESVYDPFGAGHSSTSISAGLGMAVASALKAEKRRNIVAVIGDGAMSAGMAYEAMNNAGALNARLIVVLNDNDMSIAPPTGAMSAHLARLVSRPAYRSLRERVKVLGEKLPKFFLDKARRSEEFARGFLVGGTLFEELGFYYVGPIDGHNLKHLLPVLKNVREYPTGPVLIHVVTHKGKGYAPAEASLDKYHGVNRFDIITGKQVKASSNVLPYTKVFSKALREEASYDDKIVAITAAMPTGTGLDFFAEKFPERMFDVGIAEQHAVTFAAGMACEGYKPFVAIYSTFLQRAYDQIIHDVSIQKLPVRFAIDRAGFVGADGATHAGSFDIVFLTTLPEFVVMAPSDEVELMHMVRTAAAYDQGPISFRYPRGEGIGMDLPQRGEILEIGKGRILHEGNRIALVCFGTRISEVLVAADELSAEGLSTTVADARFAKPLDKDLMRRLAREHEVLVTIEEGAIGGFGAHLLQFLAQEGLLEHGLKVRTLKLPDEYLNHGSQEKVLSRIGLDAVGIVNTVFSALGRKIRTVQRVRV,not soluble
16,MSRYCSECGKARKACLCPSIVALESAVELIILQHPTEQKRPLGTARILSLSLANCRLLVGEDFREHDELNQLLAEPDVDYYVLYPNEHAQECTKISLTTARKTRVILLDGTWKKAYKMWQINTQLHDLPSLHLPDECVGHYRIRKAPDDTALSTVEAGYHLLQQWQPERDFSPLLKVFDAMIQYQIDQMPEGVFERNYRQLEHHHHHH,not soluble
17,MSSDIDELRREIDIVDVISEYLNLEKVGSNYRTNCPFHPDDTPSFYVSPSKQIFKCFGCGVGGDAIKFVSLYEDISYFEAALELAKRYGKKLDLEKISKDEKVYVALDRVCDFYRESLLKNREASEYVKSRGIDPKVARKFDLGYAPSSEALVKVLKENDLLEAYLETKNLLSPTKGVYRDLFLRRVVIPIKDPRGRVIGFGGRRIVEDKSPKYINSPDSRVFKKGENLFGLYEAKEYIKEEGFAILVEGYFDLLRLFSEGIRNVVAPLGTALTQNQANLLSKFTKKVYILYDGDDAGRKAMKSAIPLLLSAGVEVYPVYLPEGYDPDEFIKEFGKEELRRLINSSGELFETLIKTARENLEEKTREFRYYLGFISDGVRRFALASEFHTKYKVPMEILLMKIEKNSQEKEIKLSFKEKIFLKGLIELKPKIDLEVLNLSPELKELAVNALNGEEHLLPKEVLEYQVDNLEKLFNNILRDLQKSGKKRKKRGLKNVNT,soluble
18,MSSDPDKMMSKADKMTKLTLTRWSADWRGATELYEQAANGFRASNKYEKAKVALEKASKGQEMQASPWDAAKHMESAAALAQKLSIWNEVADFYRKASELYVECGRAQPASDALGKAARALEDVKPDDAIQLYTDACEILEEDGRDQMAFDLYRACANVYIKLEKFTDAATFFLRLGVAADKCDATNSQCKAYLSAIILYLYAHDLQQAEKCYNDCSQIDAFLKSDQSRSASRLLTAYNEGDIEEIKKVASASTVSNLDHMIIKLARKLPTGDVTAIQMNTNDDLDEDDLT,soluble
19,MSSEACTDPYLRCAFNGAALTALGISHSALLAHSPQGCEYLVNNAFASQECDYMETMTLCTKLCVDEIVHGGEDILARTIREVKDLPISALFVLSACGPEIVGDDIVGVCEALQPEVKFRLVPIESAGFRGSQYDGIDIAMDTILKKLVKDDVEKIPGSVCLEHHHHHH,not soluble
20,MSSEDFYRELKQRSLFEAIHLIEQELLKVESQIGTDALPKNEKLNLKVNASLGFENAQLVSTKPLGKDKLALETNLIGLTGEQGVLPQHYSELALHRLKEGDHAMVDFYDIFNHRLLSLYYRSWQLSQLTIQARAHAKNQRSPLTDCMSSLTGGGNDLALHYGGMYASPTRSKGALKSILECLSGCQIRIHEFQGQWMRLSKSEQTRLVSKSMPEGQFAQLGAGASLGKKAWNINASTTIEFLPKESKQVTNLLPKTNTLKTIKQVAGDFIGKHKHVKWQLTTKHSLLPQVQISKQQGQLGVGSVLKKHERTEDRNITITV,not soluble
21,MSSFLRPAVSGQDPFTTGNYRAISSHLAITPPVSVVIPAMNEAENLPYVFKSLPDWIHEVVLVDGNSTDGTVEVARELWPDVKVVEQRGKGKGDALITGFEACTGDIIVMVDADGSADGQEIVSYVSALVSGADFAKGSRFANGGGTSDMTPIRKLGNRVLCAAVNAKFGARYTDLCYGYNAFWRHCLDQIDLDCTGFEVETLMNIRVVKAGLKVQEIPSHEYLRIHGASNLRAVRDGLRVLKVILKERSNRRALRSRPHAMQLNSGQGEVSLEHHHHHH,soluble
